Patent US20230110958A1 (Regeneron, published 2023)

T1: murine IL27 receptor (IL27Ra and gp130) on mouse cells (MC9/STAT3-Luc reporter cells; splenic CD4+ T cells) (mouse, UniProt O70394 25-623; Q00560 23-917)
T1 sequence (looked up) 1: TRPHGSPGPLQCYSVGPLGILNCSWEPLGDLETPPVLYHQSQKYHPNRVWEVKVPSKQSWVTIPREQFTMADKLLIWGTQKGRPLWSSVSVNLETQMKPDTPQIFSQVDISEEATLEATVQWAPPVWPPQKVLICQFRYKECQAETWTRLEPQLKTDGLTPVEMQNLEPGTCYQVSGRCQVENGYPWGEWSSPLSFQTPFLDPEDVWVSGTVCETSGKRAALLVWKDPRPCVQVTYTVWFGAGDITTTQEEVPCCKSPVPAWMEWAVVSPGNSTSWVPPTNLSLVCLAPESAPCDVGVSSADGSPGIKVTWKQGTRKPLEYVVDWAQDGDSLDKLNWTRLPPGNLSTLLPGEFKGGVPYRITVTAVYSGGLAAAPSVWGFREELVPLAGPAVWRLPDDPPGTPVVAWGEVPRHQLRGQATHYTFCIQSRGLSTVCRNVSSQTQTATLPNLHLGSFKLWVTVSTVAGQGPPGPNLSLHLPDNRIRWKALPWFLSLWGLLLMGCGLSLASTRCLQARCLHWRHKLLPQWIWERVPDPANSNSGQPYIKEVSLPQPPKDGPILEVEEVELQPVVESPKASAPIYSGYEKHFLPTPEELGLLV
T1 sequence (looked up) 2: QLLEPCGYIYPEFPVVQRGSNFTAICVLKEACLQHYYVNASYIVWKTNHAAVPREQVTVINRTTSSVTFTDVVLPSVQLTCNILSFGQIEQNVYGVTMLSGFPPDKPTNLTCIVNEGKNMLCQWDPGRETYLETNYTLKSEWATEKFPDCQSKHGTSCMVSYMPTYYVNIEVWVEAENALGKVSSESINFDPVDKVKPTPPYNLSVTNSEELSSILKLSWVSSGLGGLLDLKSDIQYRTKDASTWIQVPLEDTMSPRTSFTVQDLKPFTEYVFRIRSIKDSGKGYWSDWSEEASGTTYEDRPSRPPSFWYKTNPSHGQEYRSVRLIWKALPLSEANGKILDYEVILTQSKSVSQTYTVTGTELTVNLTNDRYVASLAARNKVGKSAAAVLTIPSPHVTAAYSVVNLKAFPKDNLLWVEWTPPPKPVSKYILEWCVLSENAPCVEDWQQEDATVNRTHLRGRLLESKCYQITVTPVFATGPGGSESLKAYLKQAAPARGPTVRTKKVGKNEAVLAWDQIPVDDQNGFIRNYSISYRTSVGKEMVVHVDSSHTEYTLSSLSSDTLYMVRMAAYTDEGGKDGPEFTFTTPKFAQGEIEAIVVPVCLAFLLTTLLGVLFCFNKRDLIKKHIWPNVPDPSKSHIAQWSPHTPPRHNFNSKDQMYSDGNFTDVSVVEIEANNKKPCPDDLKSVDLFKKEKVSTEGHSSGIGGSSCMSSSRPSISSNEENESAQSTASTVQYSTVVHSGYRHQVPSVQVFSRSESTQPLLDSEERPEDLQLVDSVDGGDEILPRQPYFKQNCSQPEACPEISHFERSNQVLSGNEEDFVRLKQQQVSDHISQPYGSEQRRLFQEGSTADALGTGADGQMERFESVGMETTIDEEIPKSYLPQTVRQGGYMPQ


Assays:
Assay in all cases: cell-based or functional assay
[1] = molecular target: human IL27 receptor (IL27Ra and gp130) on NCI-H929/GAS-Luc cells (human) (UniProt Q6UWB1)
human IL27 receptor (IL27Ra and gp130) on NCI-H929/GAS-Luc cells (human), sequence (Q6UWB1 33-636, chain 1 of 2): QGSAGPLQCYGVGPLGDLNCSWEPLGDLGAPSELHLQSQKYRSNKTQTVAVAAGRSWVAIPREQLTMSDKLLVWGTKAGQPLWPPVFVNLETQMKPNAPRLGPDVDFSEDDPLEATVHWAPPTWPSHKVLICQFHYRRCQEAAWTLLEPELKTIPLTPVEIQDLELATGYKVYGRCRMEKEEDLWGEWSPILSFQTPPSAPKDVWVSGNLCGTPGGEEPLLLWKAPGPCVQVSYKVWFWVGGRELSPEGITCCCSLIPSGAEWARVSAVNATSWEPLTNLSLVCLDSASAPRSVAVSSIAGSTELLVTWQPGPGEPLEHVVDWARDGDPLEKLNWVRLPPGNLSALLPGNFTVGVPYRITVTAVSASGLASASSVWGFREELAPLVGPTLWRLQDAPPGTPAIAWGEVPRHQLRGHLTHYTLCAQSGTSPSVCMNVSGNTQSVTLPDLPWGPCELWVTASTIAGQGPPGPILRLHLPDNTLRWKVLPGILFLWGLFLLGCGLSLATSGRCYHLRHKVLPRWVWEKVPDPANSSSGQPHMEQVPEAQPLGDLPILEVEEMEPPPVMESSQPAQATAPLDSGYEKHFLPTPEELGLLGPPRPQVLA
human IL27 receptor (IL27Ra and gp130) on NCI-H929/GAS-Luc cells (human), sequence (chain, as listed by the source, chain 2 of 2): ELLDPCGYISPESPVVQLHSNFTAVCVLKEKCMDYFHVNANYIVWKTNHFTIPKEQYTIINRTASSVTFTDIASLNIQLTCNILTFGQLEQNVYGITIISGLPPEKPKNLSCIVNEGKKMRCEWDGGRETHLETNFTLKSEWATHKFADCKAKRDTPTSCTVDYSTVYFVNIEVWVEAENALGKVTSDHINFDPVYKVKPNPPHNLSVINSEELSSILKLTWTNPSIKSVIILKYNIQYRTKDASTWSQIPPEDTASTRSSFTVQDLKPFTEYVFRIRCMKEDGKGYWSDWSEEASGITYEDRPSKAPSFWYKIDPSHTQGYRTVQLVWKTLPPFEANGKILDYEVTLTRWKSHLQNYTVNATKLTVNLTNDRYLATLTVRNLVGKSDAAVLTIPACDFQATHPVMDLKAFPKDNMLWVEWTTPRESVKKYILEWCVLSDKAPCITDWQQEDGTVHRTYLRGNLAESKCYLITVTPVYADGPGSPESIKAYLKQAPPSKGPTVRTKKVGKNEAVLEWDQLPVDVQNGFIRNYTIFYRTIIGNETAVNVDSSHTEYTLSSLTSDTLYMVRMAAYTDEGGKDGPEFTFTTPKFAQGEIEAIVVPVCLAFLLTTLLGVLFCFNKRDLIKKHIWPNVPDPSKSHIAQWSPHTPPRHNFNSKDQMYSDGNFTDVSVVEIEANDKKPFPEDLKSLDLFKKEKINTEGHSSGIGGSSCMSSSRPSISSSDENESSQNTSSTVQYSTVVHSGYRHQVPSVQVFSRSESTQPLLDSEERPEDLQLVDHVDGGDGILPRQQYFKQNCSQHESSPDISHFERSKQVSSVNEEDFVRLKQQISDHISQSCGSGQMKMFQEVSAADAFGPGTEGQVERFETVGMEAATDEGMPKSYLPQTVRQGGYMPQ

[2] = molecular target: T1, murine IL27 receptor (IL27Ra and gp130) …
[3] = molecular target: T1, murine IL27 receptor (IL27Ra and gp130) …; remark: listed apart in the source

EC50 (M), GAS luciferase, NCI-H929/GAS-Luc cells [1] [M]	FOLD INDUCTION, GAS luciferase, NCI-H929/GAS-Luc cells [1] [fold]	EC50, luciferase activity, MC9/STAT3-Luc reporter cells [2] [nM]	EC50, phosphorylation of STAT1 in CD4+ T-cells [2] [mg/L]	EC50 (M), STAT3 luciferase, MC9 cells [3] [M]	FOLD INDUCTION, STAT3 luciferase, MC9 cells [3] [fold]	Binder
3.34e-10	12.3					Recombinant human IL27 (R&D Systems cat# 2526-IL-010/CF), Human EBI3-…-Human p28-6-His tag (ligand) RKGPPAALTLPRVQCRASRYPIAVDCSWTLPPAPNSTSPVSFIATYRLGMAARGHSWPCLQQTPTSTSCTITDVQLFSMAPYVLNVTAVHPWGSSSSFVPFITEHIIKPDPPEGVRLSPLAERQLQVQWEPPGSWPFPEIFSLKYWIRYKRQGAARFHRVGPIEATSFILRAVRPRARYYVQVAAQDLTDYGELSDWSLPATATMSLGKGSGSSRGGSGSGGSGGGGSKLAGVWGFPRPPGRPQLSLQELRREFTVSLHLARKLLSEVRGQAHRFAESHLPGVNLYLLPLGEQLPDVSLTFQAWRRLSDPERLCFISTTLQPFHALLGGLGTQGRWTNMERMQLWAMRLDLRDLQRHLRFQVLAAGFNLPEEEEEEEEEEEEERKGLLPGALGSALQGPAQVSWPQLLSTYRLLHSLELVLSRAVRELLLLSKAGHSVWPLGFPTLSPQPHHHHHH
		~0.48	~2	1.01e-09	2.95	IL27M1, Mouse EBI3-(GGGS)4-p28-(GGGGS)3-Fc (Fc fusion) YTETALVALSQPRVQCHASRYPVAVDCSWTPLQAPNSTRSTSFIATYRLGVATQQQSQPCLQRSPQASRCTIPDVHLFSTVPYMLNVTAVHPGGASSSLLAFVAERIIKPDPPEGVRLRTAGQRLQVLWHPPASWPFPDIFSLKYRLRYRRRGASHFRQVGPIEATTFTLRNSKPHAKYCIQVSAQDLTDYGKPSDWSLPGQVESAPHKPGGGSGGGSGGGSGGGSFPTDPLSLQELRREFTVSLYLARKLLSEVQGYVHSFAESRLPGVNLDLLPLGYHLPNVSLTFQAWHHLSDSERLCFLATTLRPFPAMLGGLGTQGTWTSSEREQLWAMRLDLRDLHRHLRFQVLAAGFKCSKEEEDKEEEEEEEEEEKKLPLGALGGPNQVSSQVSWPQLLYTYQLLHSLELVLSRAVRDLLLLSLPRRPGSAWDSGGGGSGGGGSGGGGSESKYGPPCPPCPAPPVAGPSVFLFPPKPKDTLMISRTPEVTCVVVDVSQEDPEVQFNWYVDGVEVHNAKTKPREEQFNSTYRVVSVLTVLHQDWLNGKEYKCKVSNKGLPSSIEKTISKAKGQPREPQVYTLPPSQEEMTKNQVSLTCLVKGFYPSDIAVEWESNGQPENNYKTTPPVLDSDGSFFLYSRLTVDKSRWQEGNVFSCSVMHEALHNHYTQKSLSLSLGK
		~0.0032	~0.0224			IL27M2, Mouse p28-(GGGGS)3-Fc (Knob) with Mouse EBI3-(GGGGS)3-Fc (Hole/star) (Fc fusion) chain 1: FPTDPLSLQELRREFTVSLYLARKLLSEVQGYVHSFAESRLPGVNLDLLPLGYHLPNVSLTFQAWHHLSDSERLCFLATTLRPFPAMLGGLGTQGTWTSSEREQLWAMRLDLRDLHRHLRFQVLAAGFKCSKEEEDKEEEEEEEEEEKKLPLGALGGPNQVSSQVSWPQLLYTYQLLHSLELVLSRAVRDLLLLSLPRRPGSAWDSGGGGSGGGGSGGGGSESKYGPPCPPCPAPPVAGPSVFLFPPKPKDTLMISRTPEVTCVVVDVSQEDPEVQFNWYVDGVEVHNAKTKPREEQFNSTYRVVSVLTVLHQDWLNGKEYKCKVSNKGLPSSIEKTISKAKGQPREPQVYTLPPSQEEMTKNQVSLWCLVKGFYPSDIAVEWESNGQPENNYKTTPPVLDSDGSFFLYSRLTVDKSRWQEGNVFSCSVMHEALHNHYTQKSLSLSLGK chain 2: YTETALVALSQPRVQCHASRYPVAVDCSWTPLQAPNSTRSTSFIATYRLGVATQQQSQPCLQRSPQASRCTIPDVHLFSTVPYMLNVTAVHPGGASSSLLAFVAERIIKPDPPEGVRLRTAGQRLQVLWHPPASWPFPDIFSLKYRLRYRRRGASHFRQVGPIEATTFTLRNSKPHAKYCIQVSAQDLTDYGKPSDWSLPGQVESAPHKPGGGGSGGGGSGGGGSESKYGPPCPPCPAPPVAGPSVFLFPPKPKDTLMISRTPEVTCVVVDVSQEDPEVQFNWYVDGVEVHNAKTKPREEQFNSTYRVVSVLTVLHQDWLNGKEYKCKVSNKGLPSSIEKTISKAKGQPREPQVYTLPPSQEEMTKNQVSLSCAVKGFYPSDIAVEWESNGQPENNYKTTPPVLDSDGSFFLVSRLTVDKSRWQEGNVFSCSVMHEALHNRFTQKSLSLSPGK
